Measurements as given in US7056679B2, “Target specific screening and its use for identifying target binders” (Antyra, Inc., priority 2001, dated 2006).

Assays:
DGI-2 = target: T1, DGI-2 (Homo sapiens, UniProt Q15004); assay: ELISA analysis of phage on DGI-2 polypeptide (specific binding); conditions: for DGI-2 (OD): binding to DGI-2 polypeptide (specific binding), phage ELISA units read at 405 nm; for DGI-2/LDH (OD): ratio of specific binding to non-specific binding
T1 construct: encompassed the entire DGI-2 open reading frame (ORF); His-tag of vector pIVEX2.3-MCS (inferred from the vector and from the reverse primer lacking a stop codon); made in house; host or cells: cell-free in vitro translation (Rapid Translation System RTS, Roche; E. coli lysate)
T1 sequence (Q15004 1-111): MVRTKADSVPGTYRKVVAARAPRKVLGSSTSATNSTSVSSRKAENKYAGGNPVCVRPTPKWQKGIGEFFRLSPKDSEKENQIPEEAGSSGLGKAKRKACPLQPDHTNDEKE
Outline: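 Recombinant DGI-2 from in vitro translation, LDH (non-specific) and controls were coated at 500 ng/well and blocked with 2% milk-PBS. Phage from individual clones bound for 2 hr at room temperature, then anti-M13-HRP with ABTS was read at 405 nm; a clone counted as positive at ≥2-fold over background.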

[1] = test system: lactate dehydrogenase (LDH); assay: ELISA analysis of phage on LDH (irrelevant, non-specific target); type: binding; conditions: peptide binding to LDH polypeptide (non-specific binding); phage ELISA units read at 405 nm
Outline: (§1)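 Phage from picked clones (M13KO7 helper) bound 2 hr at room temperature to wells coated overnight at 4 °C with 500 ng/well anti-ETAG antibody or LDH, milk-blocked. Detection with HRP-anti-M13 (1:3000) and ABTS at 405 nm; positive when A405 ≥2-fold over background.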

E-tag antibody = assay: ELISA analysis of phage on antibody raised against ETAG (positive control); conditions: peptide binding to E-tag antibody; phage ELISA units read at 405 nm
Outline: as §1

| Substance | DGI-2 (OD) (DGI-2) | DGI-2/LDH (OD) (DGI-2) | LDH (OD) [1] [OD] | ETAG (OD) (E-tag antibody) |
| --- | --- | --- | --- | --- |
| DRVARLATPTAGTMAAGSLGYERTVGCDSQDWFRCVVEGL (DGI-2-40F-3-D1044; listed as Escherichia coli) | 7.9 | 6.2 | 1.3 | 17.7 |
| HGTRLRGVDYVMTWAGWQGYSSRKHVQQAVAGSSPGSDEL (DGI-2-40F-3-B1; listed as Escherichia coli) | 0.8 | 1.2 | 0.7 | 6.3 |
| LGNASSLWFLRSVQESGVR (LGNASSLIPFLRSVQESGVR; DGI-2-20F-3-C5; listed as Escherichia coli) | 1.0 | 1.0 | 0.9 | 17.7 |
| GLEPVPFQTDKRIAMGWTREWLVNGYGAAHRRDARMQSGH (DGI-2-40F-3-D6; listed as Escherichia coli) | 2.5 | 2.6 | 1.0 | 11.4 |
| LSLEGGWMWDTKGGDGGSAQ (DGI-2-20R-4-F93; listed as Escherichia coli) | 9.0 | 8.4 | 1.1 | 19.5 |
| CCAWNGVGVGGLGWRVVVGP (DGI-2-20F-PP-H4; listed as Escherichia coli) | 2.1 | 2.2 | 1.0 | 32.9 |
| DSEA*RVWYSGFLRRLGHMC (DSEARVWYSGFLRRLGHMC; DGI-2-20F-PP-F7; listed as Escherichia coli) | 2.1 | 2.1 | 1.0 | 3.3 |
| LSHPMSPLRAASQMALTQGV (DGI-2-20R-4-H7; listed as Escherichia coli) | 3.1 | 2.6 | 1.2 | 14.1 |
| VRAVYSRDAYNEVGRWMRVGI (DGI-2-20F-PP-D9; listed as Escherichia coli) | 2.9 | 2.9 | 1.0 | 9.0 |
| ACSVGTALVFPQRWWYLGRS (DGI-2-20R-3-D6; listed as Escherichia coli) [DGL-2-20R-3-D6] | 2.2 | 2.1 | 1.1 | 12.9 |
| FRVALLSVSAGPCEGSGNT (DGI-2-20F-PP-H7; listed as Escherichia coli) | 1.8 | 2.1 | 0.8 | 3.7 |
| RVSYEMLGRRRRSMHGSSMR (DGI-2-20F-PP-A4; listed as Escherichia coli) | 2.7 | 2.6 | 1.1 | 6.6 |

More lines, main results first:

| DGI-2 (OD) (DGI-2) | DGI-2/LDH (OD) (DGI-2) | LDH (OD) [1] [OD] | Substance | ETAG (OD) (E-tag antibody) |
| --- | --- | --- | --- | --- |
| 3.0 | 3.2 | 0.9 | SIILAGCVWVMPCGQNLGGV (DGI-2-20F-PP-C4; listed as Escherichia coli) | 36.1 |
| 1.6 | 1.9 | 0.9 | SRGMAEAQFSAWPVLAVFPL (DGI-2-20F-PP-H8; listed as Escherichia coli) | 32.4 |
| 6.7 | 6.4 | 1.0 | QVGGMTQVGATVLSVVTGRGSCDGEDAWYPPGVTVGLGLC (DGI-2-40F-4-F97; listed as Escherichia coli) | 14.0 |
| 1.8 | 1.8 | 1.0 | TPDRCLIYSSIQCLLEYSARRGSAD (DGI-2-20C-3-C65; listed as Escherichia coli) | 7.4 |
| 2.5 | 2.6 | 1.0 | S#ARSLMTGVVAVCIVWRGP (SARSLMTGVVAVCIVWRGP; DGI-2-20F-PP-E8; listed as Escherichia coli) | 36.3 |
| 2.0 | 1.7 | 1.2 | MGADTCMGGKMPFDQMFGAV (DGI-2-20F-PP-E10; listed as Escherichia coli) | 44.6 |
| 2.7 | 2.3 | 1.2 | TFTRDVAGPAVSFVRLHSWN (DGI-2-20F-PP-A9; listed as Escherichia coli) | 40.8 |
| 2.1 | 2.3 | 0.9 | VGQSSGDARPLANLFVFPFV (DGI-2-20F-PP-F12; listed as Escherichia coli) | 47.6 |
